The record followed here is PMC3484393, “Unwinding of synthetic replication and recombination substrates by Srs2”.

The target of data set [1] is T1, Srs2ΔC (Srs2 1-898) (Saccharomyces cerevisiae? (budding …, UniProt P12954 1-898)). The data set can be described thus: competition; FITC-3' overhang competitor releasing 50% of Cy5-ssDNA (N1) from 150 nM Srs2ΔC; 30 mM Tris pH 7.5, 1 mM DTT, 0.1 mg/ml BSA, 100 mM KCl, 3 nM DNA, 30 °C 10 min; 7% native PAGE in 0.5x TBE. As to conditions: protein: recombinant; tags: His9 (pull-down section says His6); label: fluorescein (FITC), end label.
T1 sequence (P12954 1-898, stated change not applied): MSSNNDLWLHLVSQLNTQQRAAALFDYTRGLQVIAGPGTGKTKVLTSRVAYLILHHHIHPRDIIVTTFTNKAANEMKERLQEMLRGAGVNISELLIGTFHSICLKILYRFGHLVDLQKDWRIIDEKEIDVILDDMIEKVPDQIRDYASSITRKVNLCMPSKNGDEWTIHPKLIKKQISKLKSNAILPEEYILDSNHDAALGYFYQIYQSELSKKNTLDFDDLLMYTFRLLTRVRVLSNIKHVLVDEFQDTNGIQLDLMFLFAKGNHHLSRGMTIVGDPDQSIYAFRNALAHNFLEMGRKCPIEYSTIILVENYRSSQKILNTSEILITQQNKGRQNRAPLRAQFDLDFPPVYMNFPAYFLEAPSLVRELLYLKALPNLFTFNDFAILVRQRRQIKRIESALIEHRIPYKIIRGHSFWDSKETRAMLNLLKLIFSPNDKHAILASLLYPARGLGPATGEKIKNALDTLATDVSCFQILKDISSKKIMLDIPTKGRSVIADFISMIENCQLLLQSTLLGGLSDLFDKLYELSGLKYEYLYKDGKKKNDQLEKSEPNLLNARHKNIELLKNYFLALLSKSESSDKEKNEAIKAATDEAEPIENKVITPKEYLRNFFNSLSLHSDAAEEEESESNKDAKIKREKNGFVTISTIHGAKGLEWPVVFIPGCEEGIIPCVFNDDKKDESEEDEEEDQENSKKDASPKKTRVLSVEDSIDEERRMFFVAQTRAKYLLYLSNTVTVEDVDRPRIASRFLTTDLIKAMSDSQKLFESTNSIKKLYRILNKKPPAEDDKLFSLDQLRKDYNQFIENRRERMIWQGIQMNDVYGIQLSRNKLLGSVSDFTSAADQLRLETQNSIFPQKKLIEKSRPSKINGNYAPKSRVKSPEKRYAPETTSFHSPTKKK

Data set [2] deals with T1, Srs2ΔC (Srs2 1-898). Put plainly: EMSA; much higher affinity than other substrates; 3 nM DNA; 30 mM Tris pH 7.5, 1 mM DTT, 0.1 mg/ml BSA, 100 mM KCl, 3 nM DNA, 30 °C 10 min; 7% native PAGE in 0.5x TBE. As to conditions: protein: recombinant, tags: His9 (pull-down section says His6), label: fluorescent dye (fluorescein or Cy5), end label.
In data set [3] the target is T1, Srs2ΔC (Srs2 1-898). The data set can be described thus: competition; FITC-ssDNA competitor against Cy5-ssDNA with 150 nM Srs2ΔC; value derived from text: 3 times higher than the 5 nM of 3' overhang; 30 mM Tris pH 7.5, 1 mM DTT, 0.1 mg/ml BSA, 100 mM KCl, 3 nM DNA, 30 °C 10 min; 7% native PAGE in 0.5x TBE. As to conditions: protein: recombinant; tags: His9 (pull-down section says His6); label: fluorescein or Cy5, end label; single strand.

B1: 3' overhang (mixed)
DNA 1: AGCTACCATGCCTGCACGAATTAAGCAATTCGTAATCATGGTCATAGCT
DNA 2: AATTCGTGCAGGCATGGTAGCT
The term IC50 denotes the point on the concentration scale where inhibition reaches its midpoint. Regarding B1, in data set [1], the IC50 is ~5 nM.

B2: 5' flap (fork with leading strand) (structured_DNA)
DNA 1: AGCTACCATGCCTGCACGAATTAAGCAATTCGTAATCATGGTCATAGCT
DNA 2: AGCTATGACCATGATTACGAATTGCTT
DNA 3: GATGTCAAGCAGTCCTAAGGAATTCGTGCAGGCATGGTAGCT
Consider B2, for which, in data set [2] (5' flap), the binding result is “binds”.

B3: 5' overhang (mixed)
DNA 1: AGCTACCATGCCTGCACGAATTAAGCAATTCGTAATCATGGTCATAGCT
DNA 2: AGCTATGACCATGATTACGAATTGCTT
B3: in data set [2], the binding result is “binds”.
As for AGCTACCATGCCTGCACGAATTAAGCAATTCGTAATCATGGTCATAGCT (ssDNA) [ssDNA], in data set [3], the IC50 was ~15 nM.
